Reference: patent US20130156786A1 (Sanofi, published 2013)
Where “and” joins values, the source holds several entries; their conditions need not be identical. Identical values can stand only once.

T1: human integrin α2 I domain, recombinantly expressed in E. coli (human, UniProt P17301 169-368, limits assumed)
T1 construct: Analyte of the Biacore experiments; also called integrin α2β1 I-domain; integrin I-domain
T1 sequence: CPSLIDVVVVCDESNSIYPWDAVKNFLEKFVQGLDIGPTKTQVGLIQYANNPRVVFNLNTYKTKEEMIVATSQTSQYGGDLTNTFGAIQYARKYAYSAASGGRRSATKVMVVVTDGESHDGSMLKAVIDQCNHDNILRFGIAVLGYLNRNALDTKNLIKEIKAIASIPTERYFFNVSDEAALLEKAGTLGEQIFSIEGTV

T2: α2-I-domain GST aa 140-339 (human, UniProt P17301 169-368)
T2 construct: May be the same protein as m4; also called I-domain of integrin α2β1 integrin; not shown: GST
T2 sequence: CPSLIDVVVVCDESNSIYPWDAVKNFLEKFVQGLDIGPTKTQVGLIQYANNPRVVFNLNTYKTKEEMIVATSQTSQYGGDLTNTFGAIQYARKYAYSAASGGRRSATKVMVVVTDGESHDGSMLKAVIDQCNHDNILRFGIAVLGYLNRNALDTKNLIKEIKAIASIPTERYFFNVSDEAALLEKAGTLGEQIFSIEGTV


Key:
[1] = molecular target: T3, human α2β1 integrin on human platelets (human, UniProt P17301 30-1181; P05556 21-798); experiment: cell-based or functional assay
T3 sequence (P17301 30-1181 limits assumed, chain 1 of 2): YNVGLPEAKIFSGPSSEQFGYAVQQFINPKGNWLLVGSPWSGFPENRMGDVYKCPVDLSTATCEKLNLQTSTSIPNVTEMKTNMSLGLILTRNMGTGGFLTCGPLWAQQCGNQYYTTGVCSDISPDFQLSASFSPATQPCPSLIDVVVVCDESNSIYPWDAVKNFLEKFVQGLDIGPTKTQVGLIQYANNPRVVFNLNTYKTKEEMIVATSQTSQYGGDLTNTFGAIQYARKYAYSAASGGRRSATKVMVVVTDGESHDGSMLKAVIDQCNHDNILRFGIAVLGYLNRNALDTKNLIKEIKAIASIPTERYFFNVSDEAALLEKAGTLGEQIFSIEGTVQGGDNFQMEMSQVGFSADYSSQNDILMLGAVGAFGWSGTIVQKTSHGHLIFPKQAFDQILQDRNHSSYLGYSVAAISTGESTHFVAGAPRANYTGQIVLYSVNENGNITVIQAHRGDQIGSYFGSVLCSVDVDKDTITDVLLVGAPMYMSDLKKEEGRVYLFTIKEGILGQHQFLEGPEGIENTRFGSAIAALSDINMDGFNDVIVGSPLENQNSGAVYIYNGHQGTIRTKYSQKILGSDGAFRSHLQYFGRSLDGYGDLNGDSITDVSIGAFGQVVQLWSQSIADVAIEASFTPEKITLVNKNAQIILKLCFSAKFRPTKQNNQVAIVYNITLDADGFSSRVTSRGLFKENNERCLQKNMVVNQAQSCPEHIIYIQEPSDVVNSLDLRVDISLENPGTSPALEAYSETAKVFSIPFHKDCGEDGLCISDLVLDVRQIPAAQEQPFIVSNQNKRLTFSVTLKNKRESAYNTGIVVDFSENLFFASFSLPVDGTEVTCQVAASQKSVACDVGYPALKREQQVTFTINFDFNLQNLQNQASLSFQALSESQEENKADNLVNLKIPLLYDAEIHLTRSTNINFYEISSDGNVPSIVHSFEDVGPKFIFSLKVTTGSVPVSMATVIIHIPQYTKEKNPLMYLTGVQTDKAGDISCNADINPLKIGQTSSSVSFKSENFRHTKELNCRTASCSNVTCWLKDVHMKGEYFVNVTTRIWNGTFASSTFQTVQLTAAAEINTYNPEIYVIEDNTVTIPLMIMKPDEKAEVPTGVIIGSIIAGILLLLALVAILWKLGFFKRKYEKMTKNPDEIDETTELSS
T3 sequence (P05556 21-798 limits assumed, chain 2 of 2): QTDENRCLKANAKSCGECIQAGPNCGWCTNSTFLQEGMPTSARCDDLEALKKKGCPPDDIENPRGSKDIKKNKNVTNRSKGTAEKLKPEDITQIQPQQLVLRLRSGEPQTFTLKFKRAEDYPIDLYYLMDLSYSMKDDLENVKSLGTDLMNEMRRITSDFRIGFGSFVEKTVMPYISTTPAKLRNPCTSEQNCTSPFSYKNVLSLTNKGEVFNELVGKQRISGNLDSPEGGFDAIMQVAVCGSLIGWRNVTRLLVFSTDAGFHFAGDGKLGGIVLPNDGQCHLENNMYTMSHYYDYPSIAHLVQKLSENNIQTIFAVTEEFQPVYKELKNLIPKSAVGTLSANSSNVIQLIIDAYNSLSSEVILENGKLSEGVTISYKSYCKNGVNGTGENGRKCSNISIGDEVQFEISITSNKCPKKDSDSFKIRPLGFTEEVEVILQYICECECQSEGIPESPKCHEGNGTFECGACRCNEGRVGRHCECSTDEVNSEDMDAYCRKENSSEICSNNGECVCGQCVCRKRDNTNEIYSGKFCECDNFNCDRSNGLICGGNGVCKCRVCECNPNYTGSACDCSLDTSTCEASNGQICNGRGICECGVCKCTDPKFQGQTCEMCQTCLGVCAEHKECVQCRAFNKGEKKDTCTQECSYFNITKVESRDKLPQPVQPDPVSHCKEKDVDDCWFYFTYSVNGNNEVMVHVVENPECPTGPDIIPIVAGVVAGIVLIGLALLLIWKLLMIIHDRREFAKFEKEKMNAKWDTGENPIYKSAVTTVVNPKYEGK

[2] = molecular target: T3, human α2β1 integrin on human platelets; experiment: cell-based or functional assay; remark: listed apart in the source
[3] = molecular target: T3, human α2β1 integrin on human platelets; experiment: cell-based or functional assay; remark: listed apart in the source
[4] = molecular target: T4, recombinantly expressed integrin α2β1 (human, UniProt P17301 30-1132; P05556 21-728, limits assumed); experiment: solid phase assay: inhibition of biotinylated collagen binding to coated α2β1
T4 construct: The assay paragraph gives neither species nor construct limits; also called a2β1; recombinant α2 integrin
T4 sequence (P17301 30-1132 limits assumed, chain 1 of 2): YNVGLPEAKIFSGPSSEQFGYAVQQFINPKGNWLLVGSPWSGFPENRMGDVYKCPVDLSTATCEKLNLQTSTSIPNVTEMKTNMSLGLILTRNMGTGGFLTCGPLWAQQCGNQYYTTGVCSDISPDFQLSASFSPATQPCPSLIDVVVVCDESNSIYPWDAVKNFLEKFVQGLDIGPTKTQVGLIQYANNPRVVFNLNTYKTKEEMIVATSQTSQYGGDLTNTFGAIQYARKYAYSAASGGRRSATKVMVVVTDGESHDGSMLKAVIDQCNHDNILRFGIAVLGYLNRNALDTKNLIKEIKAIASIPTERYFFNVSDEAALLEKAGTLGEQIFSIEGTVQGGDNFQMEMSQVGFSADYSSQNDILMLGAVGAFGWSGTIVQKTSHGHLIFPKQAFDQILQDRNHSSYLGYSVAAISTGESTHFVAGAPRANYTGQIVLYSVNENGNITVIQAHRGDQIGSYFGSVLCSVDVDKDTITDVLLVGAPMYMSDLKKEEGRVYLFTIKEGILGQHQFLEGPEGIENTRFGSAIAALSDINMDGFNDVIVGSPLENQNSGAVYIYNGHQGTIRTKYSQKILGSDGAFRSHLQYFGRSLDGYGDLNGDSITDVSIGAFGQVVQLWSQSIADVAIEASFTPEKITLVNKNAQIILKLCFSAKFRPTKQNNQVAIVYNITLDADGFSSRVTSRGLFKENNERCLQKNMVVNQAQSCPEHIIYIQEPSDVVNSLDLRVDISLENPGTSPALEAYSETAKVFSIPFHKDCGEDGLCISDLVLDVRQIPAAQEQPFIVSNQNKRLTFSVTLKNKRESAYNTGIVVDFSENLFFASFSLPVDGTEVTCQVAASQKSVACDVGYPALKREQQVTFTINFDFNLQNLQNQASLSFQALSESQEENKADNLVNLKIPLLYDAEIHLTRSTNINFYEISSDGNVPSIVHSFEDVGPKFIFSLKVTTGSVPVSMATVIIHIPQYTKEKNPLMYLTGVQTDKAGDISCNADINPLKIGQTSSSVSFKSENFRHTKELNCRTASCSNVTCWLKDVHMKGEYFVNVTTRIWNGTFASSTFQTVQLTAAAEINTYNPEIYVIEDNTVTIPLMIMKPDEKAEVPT
T4 sequence (P05556 21-728 limits assumed, chain 2 of 2): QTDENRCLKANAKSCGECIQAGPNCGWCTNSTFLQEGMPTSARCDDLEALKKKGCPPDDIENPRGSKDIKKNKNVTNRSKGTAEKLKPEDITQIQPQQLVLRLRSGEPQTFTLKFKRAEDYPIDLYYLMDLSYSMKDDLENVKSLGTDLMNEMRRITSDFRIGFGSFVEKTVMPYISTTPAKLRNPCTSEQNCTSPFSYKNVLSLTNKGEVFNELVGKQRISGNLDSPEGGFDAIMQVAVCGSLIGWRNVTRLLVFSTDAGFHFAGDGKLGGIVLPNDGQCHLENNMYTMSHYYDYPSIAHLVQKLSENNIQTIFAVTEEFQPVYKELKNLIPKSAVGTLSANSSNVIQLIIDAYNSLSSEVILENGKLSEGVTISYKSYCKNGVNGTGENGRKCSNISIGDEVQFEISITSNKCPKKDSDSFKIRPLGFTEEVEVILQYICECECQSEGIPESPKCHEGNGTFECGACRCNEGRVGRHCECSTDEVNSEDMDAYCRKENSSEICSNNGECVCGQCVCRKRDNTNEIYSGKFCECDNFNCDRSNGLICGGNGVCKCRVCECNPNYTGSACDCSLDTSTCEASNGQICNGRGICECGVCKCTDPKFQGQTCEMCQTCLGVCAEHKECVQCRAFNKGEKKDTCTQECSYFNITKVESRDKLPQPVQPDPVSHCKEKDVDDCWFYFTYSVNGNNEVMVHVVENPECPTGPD

[5] = molecular target: T4, recombinantly expressed integrin α2β1; experiment: solid phase assay: inhibition of biotinylated collagen binding to coated α2β1, 4% HSA
[6] = molecular target: T1, human integrin α2 I domain, …; experiment: SPR Biacore 3000, Fab immobilised by amine coupling, I-domain as analyte, 1:1 model with mass transfer
From the text: (§1) Surface plasmon resonance technology on a Biacore 3000 (GE Healthcare) was used for detailed kinetic characterisation of the purified antibody and the corresponding Fab fragment. A direct binding assay was used with the anti-integrin antibody or the Fab fragment as the ligand and the integrin α2β1 I-domain as analyte. Typically, 600 RU of antibody or Fab fragment were immobilised on a research grade CMS chip by amine reactive coupling, resulting in an Rmax of 80 and 140 RU for the I domain bound to the antibody and the Fab fragment, respectively. Binding kinetics were measured over a concentration range between 0.4 to 28 nM I-domain in HBS-P buffer supplemented with 4 mM MgCl2 (10 mM HEPES pH 7.4, 150 mM NaCl, 0.005% Surfactant P20) at a flow rate of 30 μl/min. Chip surfaces were regenerated with 10 mM glycine pH 2.2. Kinetic parameters were analysed and calculated in the BIAevaluation program package (version 4.1) using a flow cell without immobilised anti-integrin antibody or Fab fragment as reference. A 1:1 binding model with mass transfer was applied for a global fit of the data for curves corresponding to analyte concentrations from 0.4-28 nM […].

[7] = molecular target: T2, α2-I-domain GST aa 140-339; experiment: solid phase assay: inhibition of biotinylated collagen binding to coated α2-I-domain
Experimental: For the Solid Phase Assay, integrin (α₂-I-domain: α₂-I-domain GST aa 140-339 in TBS/5 mM Mn²⁺, 50 μl/well) was immobilized on 96-well plate (Corning Costar, 3690), at room temperature overnight. Then, 25 μl/well of blocking solution (5% BSA (crude) (A7906), 1×TBS) were added and discarded. 200 μl/well of blocking solution were added and left for 3 h at room temperature. After a washing step (3 times with 200 μl/well binding buffer: 1×TBS and 0.1% BSA (A7638) and 2 mM Mn²⁺; TBS: 150 mM NaCl, 25 mM Tris (Fluka 93371) pH7.4), samples were incubated at RT for 3 h stationary with 50 μl of:
After a washing step (3 times with 200 μl/well binding buffer), samples were incubated with 50 μl/well ExtrAvidin Peroxidase (Peroxidase conjugate, Sigma E2886; 1:500 in binding buffer) for 30 min at RT and again washed 4 times with 200 μl/well binding buffer. […]

[8] = molecular target: T1, human integrin α2 I domain, …; experiment: SPR Biacore 3000, antibody immobilised by amine coupling, I-domain as analyte, 1:1 model with mass transfer
From the text: as §1

Binder	Inhibition of binding of washed platelets to collagen, IC50 [1]	Inhibition of binding of platelets to collagen in platelet rich plasma, MW IC50 [2]	further results
humanized anti-α2-integrin mAb LC5/HC7 (antibody, IgG4, V domains shown) VH: QVQLVQSGAEVKKPGASVKVSCKASGYTFTSYWMNWVRQAPGQGLEWIGRIDPSDSETHYAQKFQGRATLTVDKSTSTAYMELSSLRSEDTAVYYCAKVGRGYFDYWGQGTLVTVSS VL: NIVLTQSPASLAVSPGQRATITCRASESVESYGNSFIYWYQQKPGQPPKLLIYLASNLASGVPARFSGSGSRTDFTLTINPVEADDTANYYCQQNNEDPYTFGGGTKLEIK	0.031 µg/mL	0.224 µg/mL	
TMC2206, humanized hIgG4 anti-alpha 2 integrin antibody (comparator) (antibody, V domains shown) VH: QVQLQESGPGLVKPSETLSLTCTVSGFSLTNYGIHWIRQPPGKGLEWLGVIWARGFTNYNSALMSRLTISKDNSKNQVSLKLSSVTAADTAVYYCARANDGVYYAMDYWGQGTLVTVSS VL: DFVMTQSPAFLSVTPGEKVTITCSAQSSVNYIHWYQQKPDQAPKKLIYDTSKLASGVPSRFSGSGSGTDYTFTISSLEAEDAATYYCQQWTTNPLTFGQGTKVEIKR	0.023 µg/mL	0.11 µg/mL	
chimeric anti α2-integrin-Fab (6xHis tagged CH1 of human IGHG1) (Fab, V domains shown, also called Fab fragment; Fab frament) VH: QVQLHQPGAELVKPGAPVKLSCKASGYTFTSYWMNWVKQRPGRGLEWIGRIDPSDSETHYNQKFKDKATLTVDKSSSTAYIQLSSLTSEDSAVYYCAKVGRGYFDYWGQGTTLTVSS VL: NIVLTQSPASLAVSLGQRATISCRASESVESYGNSFIYWYQQKPGQAPKLLIYLASNLASGVPARFSGSGSRTDFTLTIDPVEADDAATYYCQQNNEDPYTFGGGTKLEIKR			Human platelet adhesion to collagen under shear (whole blood) 3000 s-1, IC50 [3]: 1.3 nM and 0.06 µg/mL; Static human platelet adhesion to collagen (PRP), IC50 [3]: 0.3 µg/mL and 6.7 nM; Static human platelet adhesion to collagen (washed plt), IC50 [3]: 0.04 µg/mL and 0.8 nM; IC50 [4]: 0.2 µg/mL and 4.2 nM; IC50 [5]: 0.4 µg/mL and 8.2 nM; Kd [6]: 0.84 nM; koff [6]: 0.00083 s⁻¹; kon [6]: 990000 M⁻¹ s⁻¹
humanized anti-α2-integrin mAb LC3/HC3 (antibody, IgG4, V domains shown) VH: QVQLHQPGAELVKPGASVKLSCKASGYTFTSYWMNWVKQRPGRGLEWIGRIDPSDSETHYNQKFKDKATLTVDKSSSTAYIQLSSLTSEDSAVYYCAKVGRGYFDYWGQGTTLTVVS VL: NIVLTQSPSSLSVSVGQRATISCRASESVESYGNSFIYWYQQKPGQAPKLLIYLASNLASGVPARFSGSGSRTDFTLTIDPVQAEDAATYYCQQNNEDPYTFGGGTKLEIK	0.012 µg/mL	0.132 µg/mL	
humanized anti-α2-integrin mAb LC4/HC5 (antibody, IgG4, V domains shown) VH: QVQLHQPGAELVKPGASVKLSCKASGYTFTSYWMNWVKQRPGRGLEWIGRIDPSESETHYNQKFKDKATLTVDKSSSTAYIQLSSLTSEDSAVYYCAKVGRGYFDYWGQGTTLTVVS VL: NIVLTQSPSSLSVSVGQRATISCRASESVESYGQSFIYWYQQKPGQAPKLLIYLASNLASGVPARFSGSGSRTDFTLTIDPVQAEDAATYYCQQNNEDPYTFGGGTKLEIK	0.057 µg/mL	3.25 µg/mL	
humanized anti-α2-integrin mAb LC3/HC4 (antibody, IgG4, V domains shown) VH: QVQLHQPGAELVKPGASVKLSCKASGYTFTSYWMNWVKQRPGRGLEWIGRIDPSDSETHYNQKFKDKATLTVDKSSSTAYIQLSSLTSEDSAKYYCAKVGRGYFDYWGQGTTLTVVS VL: NIVLTQSPSSLSVSVGQRATISCRASESVESYGNSFIYWYQQKPGQAPKLLIYLASNLASGVPARFSGSGSRTDFTLTIDPVQAEDAATYYCQQNNEDPYTFGGGTKLEIK	0.016 µg/mL	0.193 µg/mL	
humanized anti-α2-integrin mAb LC1/HC1 (antibody, IgG4, V domains shown) VH: QVQLHQPGAELVKPGAPVKLSCKASGYTFTSYWMNWVKQRPGQGLEWIGRIDPSDSETHYNQKFKDRATLTVDKSSSTAYIQLSSLTSEDSAVYYCAKVGRGYFDYWGQGTTLTVVS VL: NIVLTQSPSSLAVSVGQRATISCRASESVESYGNSFIYWYQQKPGKAPKLLIYLASNLASGVPARFSGSGSRTDFTLTIDPVQADDAATYYCQQNNEDPYTFGGGTKLEIK	0.021 µg/mL	0.277 µg/mL	
humanized anti-α2-integrin mAb LC2/HC2 (antibody, IgG4, V domains shown) VH: QVQLHQPGAELVKPGAPVKLSCKASGYTFTSYWMNWVKQRPGQGLEWIGRIDPSESETHYNQKFKDRATLTVDKSSSTAYIQLSSLTSEDSAVYYCAKVGRGYFDYWGQGTTLTVVS VL: NIVLTQSPSSLAVSVGQRATISCRASESVESYGQSFIYWYQQKPGKAPKLLIYLASNLASGVPARFSGSGSRTDFTLTIDPVQADDAATYYCQQNNEDPYTFGGGTKLEIK	0.092 µg/mL	3.96 µg/mL	
humanized anti-α2-integrin mAb LC4/HC6 (antibody, IgG4, V domains shown) VH: QVQLHQPGAELVKPGASVKLSCKASGYTFTSYWMNWVKQRPGRGLEWIGRIDPSESETHYNQKFKDKATLTVDKSSSTAYIQLSSLTSEDSAKYYCAKVGRGYFDYWGQGTTLTVVS VL: NIVLTQSPSSLSVSVGQRATISCRASESVESYGQSFIYWYQQKPGQAPKLLIYLASNLASGVPARFSGSGSRTDFTLTIDPVQAEDAATYYCQQNNEDPYTFGGGTKLEIK	0.068 µg/mL	4.11 µg/mL	
chimeric anti α2-integrin-IgG4 (murine variable domains on human IGKC and mutated human IGHG4) (antibody, Expressed in HEK 293-FS; also called IgG4 mAb; Antibody) heavy: not shown light: NIVLTQSPASLAVSLGQRATISCRASESVESYGNSFIYWYQQKPGQAPKLLIYLASNLASGVPARFSGSGSRTDFTLTIDPVEADDAATYYCQQNNEDPYTFGGGTKLEIKRTVAAPSVFIFPPSDEQLKSGTASVVCLLNNFYPREAKVQWKVDNALQSGNSQESVTEQDSKDSTYSLSSTLTLSKADYEKHKVYACEVTHQGLSSPVTKSFNRGEC			Static human platelet adhesion to collagen (PRP), IC50 [3]: 0.3 µg/mL and 6.7 nM; Static human platelet adhesion to collagen (washed plt), IC50 [3]: 0.017 µg/mL and 0.1 nM; IC50 [4]: 0.05 µg/mL and 0.3 nM; IC50 [7]: 0.2 µg/mL and 1.5 nM; Kd [8]: 1.35 nM; koff [8]: 0.00117 s⁻¹; kon [8]: 860000 M⁻¹ s⁻¹
